Assay results: patent US12397061B2, “Systems, methods, and compositions for the generation of water-soluble cannabinoids utilizing fatty-acid binding proteins and fatty-acid binding-like proteins as cannabinoid-carriers” (Trait Biosciences, Inc., priority 2019, dated 2025)
Substitutions are numbered along the chain they refer to.

B1: Plant FABP WT: Wild type FABP from the plant Rhodamnia argentea, SEQ ID NO. 77 (protein, listed as Rhodamnia argentea)
chain: MTEFAGVYEFVKDDGKFEEILKAMDVNFLIRKVAGKMNPNTAIDVLDDGKMAFKTITPLKTVEIHFELGKEYENKRLDGTVVKGIVTRDGNKLIQEQMSEPKFKVIRELDGPEKLIVTWMCKDIVCVREYKRIQT
B2: mdl_r5_1652_ro: Rosetta-engineered pig (Sus scrofa) FABP1 variant, SEQ ID NO. 81 (protein, listed as Sus scrofa)
chain: MNFSGKYQVQSQENFEAFMKAVGQPDELIQKGKDIKGTSEIVQNGKHFKVTITTGSKVVQAEFTLGEECEAETDTGEKVKVVVQLEGDNKAVVTAKGIKAVFELNGDIITATATLGDIVFKRISKR
B3: mdl_r3_1403_sm: Engineered chicken (Gallus gallus) FABP7 variant selected by Smina score, SEQ ID NO. 80 (protein, listed as Gallus gallus)
chain: MVEAFCATWKLADSHNQDEGLKALGVGFAMRQLFNVDKPTVIISSEGDKVVIRIEGTVKNTEISFKLGEEFDETTADDRNCKSVVTLDGDKLVHVQKWDGKETNVVREIKDGRMVATFTFGDVVAVAHYEKA
B4: Chicken FABP7 WT: Wild type chicken (Gallus gallus) FABP7, SEQ ID NO. 74 (protein, listed as Gallus gallus)
chain: MVEAFCATWKLADSHNFDEYMKALGVGFAMRQVGNVTKPTVIISSEGDKVVIRTQSTFKNTEISFKLGEEFDETTPDDRNCKSVVTLDGDKLVHVQKWDGKETNFVREIKDGRMVMTLTFGDVVAVRHYEKA
B5: mdl_r5_0225_ro: Engineered chicken (Gallus gallus) FABP7 variant selected by Rosetta score, SEQ ID NO. 79 (protein, listed as Gallus gallus)
chain: B4 chain with F17M, Y20A, M21L, L24W, M30I, G34A, T54M, P76A, F105V, L118V

Tests used:
cannabinoid receptor = details: cited from earlier work
[1] = FABP binding to cannabinoids by ANS displacement (CBD as ligand); details: for binding to CBD by ANS displacement: 2 uM protein, 20 uM ANS, 33 uM CBD, decrease in fluorescence vs protein without ligand
[2] = FABP binding to cannabinoids by ANS displacement (THC as ligand); details: for binding to THC by ANS displacement: 2 uM protein, 20 uM ANS, 33 uM THC, decrease in fluorescence vs protein without ligand
[3] = listed as Wild type FABP from chicken

Molecule	binding to CBD by ANS displacement [1]	binding to THC by ANS displacement [2]	also measured
C=C(C)[C@@H]1CCC(C)=C[C@H]1c1c(O)cc(CCCCC)cc1O [CBD, cannabidiol]	–	–	affinity for the cannabinoid receptor (cannabinoid receptor): do not have significant affinity
B1	bind	bind	–
B2	–	–	binding to CBD relative to the wild type based on relative change in fluorescence ([1]; FIG. 7, ANS displacement): improved binding; binding to THC relative to the wild type based on relative change in fluorescence ([2]; FIG. 7, ANS displacement): improved binding
B3	no binding	no binding	–
B4	no, or negligible binding	no, or negligible binding	binding to CBD by ANS displacement [1, 3]: no binding; binding to THC by ANS displacement [2, 3]: no binding
B5	binding to CBD	not THC	–
